{"source": "patent US20240279288A1", "about": "“APPLICATION OF PLANT JAZ PROTEINS AND DERIVED POLYPEPTIDES IN PREVENTION AND TREATMENT OF HUMAN AND ANIMAL TUMORS” (ANYANG INSTITUTE OF SINO-COTTON INDUSTRY INNOVATION, priority 2021, published 2024)", "molecules": {"B1": {"name": "GhJAZ1: cotton JAZ1 protein, gene number Gh_A05G0260, sequence SEQ ID No. 4; prokaryotically expressed with His tag, about 30 KD (protein)", "chain": "MSSCSESTAMKPARSPEKPSFAQTCNLLSQYLKEKGSFGDLSLGMTCNVEANGTPVVPPPTMNLFPLNDKSDDVCGRNGGNPKNLTSMDLFPQQAGLASKDDSPNKLEPQTAPMTIFYGGQVIVFNDFPANKAKEIMLLASNSSSQSNNSFNPIPFTSSIARSPIESSIGVPPTSKPVHPAQRAVPGDLPIARRASLHRFLEKRKDRITAKAPYQINNSAAAPSLSGDNKSWLGLAAQSP", "modifications": "His tag", "notes": "prokaryotically expressed with His tag, about 30 KD"}}, "key": {"[1]": {"system": "normal breast epithelial cells MCF10A", "assay": "Apoptosis detection (Annexin V-FITC/PI), MCF10A", "format": "cell-based", "details": "0.691 μM, 24 h, vs PBS", "description": "(§1) Apoptosis detection: cells were collected in 1.5 EP tubes and centrifuged at 300 g for 5 min, with the supernatant discarded, followed by collecting the cells, washing with PBS and resuspending. 1×10^5 resuspended cells were taken and centrifuged at 300 g for 5 min, with the supernatant discarded. The cells were washed with PBS, resuspended by adding 500 μl of diluted 1×Annexin V Binding Buffer working solution, and then a staining solution of 5 μL of Annexin V-FITC and 5 μL of propidium iodide (PI) were added and mixed well by vortex, followed by incubation at room temperature in the dark for 15-20 min, and detection on the instrument. Specifically, the Annexin V-FITC/PI fluorescent dual staining cell apoptosis detection kit (Wuhan Pricella Life Science & Technology Co., Ltd., Cat. No.: P-CA-201) was used."}, "c-Myc-150aa": {"target": "T1, c-Myc-150aa (Homo sapiens, UniProt P01106)", "T1 construct": "expressed in transfected cells", "T1 sequence (P01106 1-150)": "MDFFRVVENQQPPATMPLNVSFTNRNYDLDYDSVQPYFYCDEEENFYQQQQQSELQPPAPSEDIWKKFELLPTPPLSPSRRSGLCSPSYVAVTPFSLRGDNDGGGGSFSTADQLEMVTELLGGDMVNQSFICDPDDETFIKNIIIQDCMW", "assay": "Yeast two hybrid and LUC with c-Myc truncated to first 150 amino acids", "format": "binding", "source_text": "[…]"}, "MCF7 breast cancer cells [2]": {"system": "MCF7 breast cancer cells", "assay": "Apoptosis detection (Annexin V-FITC/PI), MCF7", "format": "cell-based, human", "details": "0.691 μM, 24 h, vs PBS", "description": "as §1"}, "MCF7 breast cancer cells [3]": {"system": "MCF7 breast cancer cells", "assay": "Cell cycle detection (PI DNA content), MCF7", "format": "cell-based, human", "details": "0.691 μM, 24 h, vs PBS", "description": "Cell cycle detection: cells were moderately digested by trypsin, and collected by centrifugation with supernatant removed, and then cells were washed with PBS, and collected by centrifugation at 1,500 rpm for 5 minutes to prepare a single-cell suspension (at a concentration of 1×10^6/ml). 1 ml of single-cell suspension was then taken and centrifuged with the supernatant discarded, and then 500 μl of 70% pre-cooled ethanol were added to fix the cells overnight at 4° C. The next day, cells were collected by centrifugation, resuspended with 1 ml of PBS and centrifuged, and then 100 μl of RNase A solution were added to the cell pellet, followed by placement in water bath at 37° C. for 30 min, and then 400 μl of PI staining solution was added and mixed well, followed by incubation at 4° C. in dark for 30 min and detection on the instrument to record under red fluorescence at the excitation wavelength of 488 nm. Specifically, a DNA content detection kit (cell cycle) (Solarbio, Cat. No.: CA1510) was used."}}}
{"molecule": "B1", "values": [{"measurement": "effect on apoptosis of normal cells (MCF10A)", "setting": "[1]", "value": "no significant effect"}, {"measurement": "interaction with first 150 amino acids truncated c-Myc", "setting": "c-Myc-150aa", "value": "strong interactions"}, {"measurement": "apoptosis rate of cancer cells (MCF7)", "setting": "MCF7 breast cancer cells [2]", "value": "increased"}, {"measurement": "proportion of G2-M phase cells (MCF7)", "setting": "MCF7 breast cancer cells [3]", "value": "increase"}, {"measurement": "proportion of S-phase cells (MCF7)", "setting": "MCF7 breast cancer cells [3]", "value": "decrease"}]}
